Among the data in article PMC6856630 are Kd, koff and kon values, retold here.

Holding throughout (test): BLI; Octet RED384; biotinylated neurexin LNS2 on streptavidin tips, Nxph in solution; 25°C, PBS pH 7.4, 50 nM TCEP, 1% BSA; global fit, double reference subtraction
The target of experiment [1] is Nrxn2 LNS2^SS2−, AviTag-His, biotinylated (BLI) (mouse).
For experiment [2], the target named is Nrxn3 LNS2^SS2− (I401Q), AviTag-His, biotinylated (BLI) (mouse).
Experiment [3] deals with Nrxn3 LNS2^SS2−, AviTag-His, biotinylated (BLI) (mouse).
The target in experiment [4] is Nrxn2 LNS2^SS2− (I401Q), AviTag-His, biotinylated (BLI) (mouse).
Experiment [5] concerns the target Nrxn1 LNS2^SS2AB+ (I401Q), AviTag-His, biotinylated (BLI) (mouse).
Experiment [6] concerns the target Nrxn1 LNS2^SS2AB+, AviTag-His, biotinylated (BLI) (mouse).

Sequence of Nxph1-2XFLAG-His (mature rat neurexophilin-1, 118-271, glycosylated) (Q63366 118-271): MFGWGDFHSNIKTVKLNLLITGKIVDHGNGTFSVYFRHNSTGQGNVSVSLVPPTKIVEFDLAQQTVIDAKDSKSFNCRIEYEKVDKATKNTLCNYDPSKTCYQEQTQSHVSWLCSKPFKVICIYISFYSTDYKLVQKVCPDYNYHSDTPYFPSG
Sequence of Nxph3-2XFLAG-His (rat neurexophilin-3, 50-252) (Q9Z2N5 50-252): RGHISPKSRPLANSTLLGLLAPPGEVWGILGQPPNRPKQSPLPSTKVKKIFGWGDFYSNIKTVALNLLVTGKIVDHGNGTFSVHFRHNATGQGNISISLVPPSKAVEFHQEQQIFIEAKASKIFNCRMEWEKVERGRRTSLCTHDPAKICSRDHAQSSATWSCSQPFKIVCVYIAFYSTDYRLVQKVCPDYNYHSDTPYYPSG

Take “Nxph3-2XFLAG-His (rat neurexophilin-3, 50-252) (from UniProt Q9Z2N5 50-252) (ligand)”: the dissociation constant Kd in experiment [1] worked out at 0.212 µM; in experiment [2], 3.5 µM; in experiment [3], 0.177 µM; in experiment [4] it was 1.31 µM. The koff in experiment [1] is 6.7e-05 s⁻¹; in experiment [2] it was 0.00053 s⁻¹; in experiment [3] it was 3.1e-05 s⁻¹; in experiment [4], 0.00044 s⁻¹. For the same substance, the kon in experiment [1] came to 302 M⁻¹ s⁻¹; in experiment [2], 153 M⁻¹ s⁻¹; in experiment [3] it was 178 M⁻¹ s⁻¹; in experiment [4] it was 350 M⁻¹ s⁻¹.

Regarding “Nxph1-2XFLAG-His (mature rat neurexophilin-1, 118-271, glycosylated) (from UniProt Q63366 118-271) (ligand)”, the Kd in experiment [1] is 0.124 µM; in experiment [2], 1940 µM; in experiment [3] it was 0.207 µM; in experiment [5], 0.499 µM; in experiment [6], 0.0433 µM; in experiment [4], 39.3 µM. For the same substance, the koff turned out to be 6.9e-05 s⁻¹ in experiment [1]; 0.012 s⁻¹ in experiment [2]; 9.2e-05 s⁻¹ in experiment [3]; 0.00034 s⁻¹ in experiment [5]; 9.4e-05 s⁻¹ in experiment [6]; 0.0025 s⁻¹ in experiment [4]. For the same substance, the kon in experiment [1] came to 554 M⁻¹ s⁻¹; in experiment [2], 10.5 M⁻¹ s⁻¹; in experiment [3], 444 M⁻¹ s⁻¹; in experiment [5] it was 674 M⁻¹ s⁻¹; in experiment [6] it was 2170 M⁻¹ s⁻¹; in experiment [4] it was 381 M⁻¹ s⁻¹.
